Values joined by “and” are separate entries in the source; they are usually repeats but may differ in a detail not shown here. Identical values can stand only once. “Also recorded” adds a separate entry of the source. No end group written: not given here.
Columns and labels:
P-glycoprotein = P-glycoprotein (Homo sapiens, UniProt P08183); assay: Transepithelial transport of Rhodamine-123 (basolateral to apical); settings: control additions: 100 uM Verapamil or 1% SDS
Description: C18 150 mm×46 mm, 3.5 um analytical column, flow rate 0.85 ml/min, detector was set at 500 nm) [15]. The mobile phase, which consisted of acetonitrile, 20 mM sodium acetate buffer pH 4.0, and water containing 1.5 mM. […] Before the end of the experiment, the transepithelial resistance was measured to ensure that the cell monolayer integrity had not been affected by the experimental conditions.

[1] = Hydrophobic drug uptake and release (Nile red); type: physicochemical; settings: for Nile red emission maxima: Nile red in peptide nanovesicles; for release kinetics of Nile red through peptide nanovesicles (in words): PBS pH 7.4, 20° C.; for retention of Nile red molecules (in words): compared to KA6-CONH2 and DA6-COOH vesicles
Description: The hydrophobic fluorescent probe Nile red was used as a probe molecule to study the peptide nanovesicle bilayer. […] The “thin film” method was used for the preparation of the dispersions. Briefly, 0.2 mg of the amphiphilic peptide was dissolved in ethanol and subsequently the organic solvent was removed under vacuum in a rotary evaporator. Then the produced thin film was rehydrated with 1 mL of PBS, pH 7.4 containing 3.14 uM Nile red. Prior to analysis the dispersions were bath sonicated for 30 minutes. All spectra were recorded at room temperature with excitation and emission slit widths set at 5 nm (RF-5301 PC Shimatzu spectrophotometer). The excitation wavelength was at 546 nm and the emission spectra were recorded from 550 to 700 nm.

[2] = AFM imaging of peptide nanovesicles on mica; type: physicochemical; settings: for Vesicle diameter, AFM analysis: individual nanovesicles; for Vesicle diameter, AFM analysis / Beads diameter, AFM analysis (necklace-like formations): dry state on mica; for number of nanovesicles per necklace: AFM image analysis; for Clusters diameter, AFM analysis: nanovesicle clusters, dry state
Description: For the AFM experiments, 3 uL were removed from the peptide vesicle dispersions (20 mg/mL of peptides in PBS that has been filtered through 0.2 um filters) and deposited on a freshly cleaved mica surface (G250-2 mica sheets 2.5×2.5×0.015 cm; Agar Scientific Ltd, Essex, UK). The bare surface of mica is smooth (rms is about 0.4 nm). Before imaging, each sample was left on mica for 1 min, rinsed with 200 uL of water (Millipore), and dried in a nitrogen gas stream. Images were obtained immediately in air using a Veeco MultiMode NanoScope 3D Controller Scanning Probe Microscope (Digital Instruments, Santa Barbara, Calif.) operated in tapping mode. AFM imaging (512×512 pixels) was performed using soft silicon probes (FESP; nominal length lnom=225 um, width wnom=28 um, tip radius Rnom=8 nm, resonant frequency νnom=75 kHz, spring constant knom=2.8 N m^−1; Veeco Instruments SAS, Dourdan, France). Typical scanning parameters were tapping frequency 73 kHz, integral and proportional gains 0.2 and 0.4, respectively, set point 0.7-1.0 V, and scanning speed 1.0-1.5 Hz. The Nanoscope image processing software was used to obtain height patterns, cross sections, and MIS of the peptide nanovesicles. Images were collected from two different samples at random spot surface sampling (at least five areas).

[3] = Particle size determination by DLS; type: physicochemical; settings: PBS pH 7.4, 25° C.
Description: Prior to measuring particle sizes by DLS, the peptide vesicle formulations in PBS were filtered through 0.4 um filter to remove vesicle aggregates. Normalized intensity-time correlation functions g^(2) (q,t)=I(q,t)I(q,0))/I(q,01))^2 were measured over a broad time scale (from 10^−7 s to 10^4 s) using a full multiple tau digital correlator (ALV-5000FAST) with 280 channels spaced quasi-logarithmically. The scattering wavevector q=4πn sin(θ/2)/λo depends on the scattering angle θ (herein we used 0=90°), the laser wavelength λo, and the refractive index of the medium n, We used the 671 nm line from a diode pumped solid state laser which operated at a power of less than 5 mW. The scattered light was collected by a single-mode optical fiber (coherence factor ˜0.95), transferred to an avalanche photo-detector and then to the digital correlator for analysis. Accumulation times were of the order of few seconds due to the strong scattered intensity from the dispersions. To check the reproducibility of the results, several time correlation functions were recorded for each peptide vesicle system dilute suspensions the normalized electric-field time auto-correlation function g^(1)=(E(q,t)E*(q,0))/(E(q,0))^2 is related to the experimentally recorded intensity autocorrelation function g^(2) (q,t)^2 through the Siegert relation g^(2) (q, t)=B[1+f*|g(1)(q,t)|^2 where B describes the long delay time behavior of g^(2) (q, t) and f* represents an instrumental factor obtained experimentally from measurements of a dilute polystyrene/toluene solution. In our case, the optical fiber collection results in f*˜0.95. The electric-field time correlation function g^(1)(t) (for simplicity we drop the q-dependence) was analyzed as a weighted sum of independent exponential contributions, i.e., g^(1)∫L(τ)exp(−t/τ)dτ=∫L(ln τ)exp(−t/τ)d in τ. The distribution of relaxation times L(lnr)=τL(τ) was obtained by inverse Laplace transformation of g<′>(q,t) using the CONTIN algorithm.
The apparent hydrodynamic radii of the suspended particles were determined using the Stokes-Einstein relation Rh=kBT/6πηD, where kB is the Boltzmann constant, η is the viscosity of the solvent, and D the diffusion coefficient of the particle. The latter is determined by D=1/t q^2. where τ is the relaxation time of g(^1) (q,t).

[4] = Release of carboxyfluorescein (CF) through peptide vesicles; type: physicochemical; settings: for CF retention / release (in words): PBS pH 7.4
Description: To determine whether the peptide vesicles can be used for drug delivery we measured the release kinetics of the hydrophilic fluorescent probe 5,6-carboxyfluorescein (CF) through the peptide bilayer assemblies. The peptide powder was added into the CF solution in PBS and the suspension was probe-sonicated for 10 min followed by equilibration for 1 hour. Encapsulated CF is strongly quenched and therefore, only the released CF contributes to the fluorescence intensity signal. Released CF was removed by centrifugation at 11,000 rpm for 25 min using Microcon YM-10 membrane tubes (10 kDa cut-off). Then the vesicles were re-suspended in PBS and incubated for 1 hour at 20° C. The newly released CF during incubation was collected by centrifugation through the Microcon membrane and the fluorescence intensity was measured. This process was repeated every 1 hour and a graph was created to show the release kinetics of CF as a function of time.

Caco-2 cell monolayers = assay: FITC-dextran 4.4 kDa permeability through Caco-2 monolayer; settings: for Enhancement ratio (FITC-dextran): R=Papp(peptide)/Papp(control); for enhancement of FITC-dextran transport compared with the control: 1.0 mgmt peptide; for Papp of FITC-dextran 4.4 kDa: apical to basolateral
Description: Caco-2 cells were seeded at a density of 2×10^5 cells/cm^2 on 24-well 6.5 mm Transwell polyester membrane inserts (0.4 um pore size, Corning Costar, Cambridge, Mass.). The medium was changed every 2-3 days in both sides of the Transwell membrane. After 20 days the growth medium was replaced with 10 mM HBSS/HEPES buffer pH 7.4 and studies of the cell-monolayer integrity and permeability were performed.
For the permeability assay, we added in the apical side of the Transwell 1 mg/mL FITC-dextran MW 4.4 kDa (Sigma) in 10 mM HBSS/HEPES buffer pH 7.4 with and without 0.2 or 1.0 mg/mL of self-assembling peptides. At each time point, samples were withdrawn from the basorateral side and the amount of FITC-dextran was measured using a fluorescence 96-well plate reader. The excitation and emission wavelengths were 490 nm and 530 nm, respectively. Results were expressed as cumulative transepithelial transport of FITC-dextran as a function of time. All measurements were done in triplicates and expressed as mean±S.D. The apparent permeability coefficient was calculated according to Papp=(dQ/dt)/(dt)/(ACo) in cm/s, where dQ, is the cumulative amount of FITC-dextran in the basolateral side at time t, (dQ/dt) in pmol/s is the permeability rate, Co is the initial concentration of FITC-dextran in the apical side and A is the area of the monolayer. The enhancement ratio R equals to R=(Papp(peptide)/Papp(control)).

[5] = Critical micelle concentration (CMC) by Dynamic Light Scattering; type: physicochemical
Description: The CMC of the amphiphilic peptides was determined by Dynamic Light Scattering (DLS) experiments (PDDLS/Batch setup, Precision Detectors, Franklin, Mass.). Solutions of different peptide concentrations were prepared in PBS and were filtered through 0.4 urn pore size filters prior to measuring. Scattered light was detected at 90° and the number of photons reaching the avalanche photodiode was recorded. The solvent viscosity and the refractive index of the buffer were taken as 0.894 cP and 1.33, respectively, at […]. Data were acquired in triplicates and processed by the Precision Deconvolve program, […]

[6] = Microelectrophoretic mobility (ζ-potential) measurements; type: physicochemical; settings: PBS pH 7.4, 20 mg/mL peptide
Description: To determine the ζ-potential of the peptide nanovesicle formulations we used a Nano ZetaSizer (Malvern Instrument, UK) equipped with an avalanche photodiode as detector and a 4 mW He—Ne laser operated at 633 nm. Data were acquired by laser Doppler velocimetry and phase analysis light scattering (PALS). The self-assembling peptides were dispersed in PBS at a concentration of 20 mg/mL, which is above their CMC, and equilibrated for 30 min at 25° C. prior to detection. Microelectrophoretic data were obtained using the Henry-Smoluchowski equation.

Chain of P-glycoprotein (P08183 whole entry): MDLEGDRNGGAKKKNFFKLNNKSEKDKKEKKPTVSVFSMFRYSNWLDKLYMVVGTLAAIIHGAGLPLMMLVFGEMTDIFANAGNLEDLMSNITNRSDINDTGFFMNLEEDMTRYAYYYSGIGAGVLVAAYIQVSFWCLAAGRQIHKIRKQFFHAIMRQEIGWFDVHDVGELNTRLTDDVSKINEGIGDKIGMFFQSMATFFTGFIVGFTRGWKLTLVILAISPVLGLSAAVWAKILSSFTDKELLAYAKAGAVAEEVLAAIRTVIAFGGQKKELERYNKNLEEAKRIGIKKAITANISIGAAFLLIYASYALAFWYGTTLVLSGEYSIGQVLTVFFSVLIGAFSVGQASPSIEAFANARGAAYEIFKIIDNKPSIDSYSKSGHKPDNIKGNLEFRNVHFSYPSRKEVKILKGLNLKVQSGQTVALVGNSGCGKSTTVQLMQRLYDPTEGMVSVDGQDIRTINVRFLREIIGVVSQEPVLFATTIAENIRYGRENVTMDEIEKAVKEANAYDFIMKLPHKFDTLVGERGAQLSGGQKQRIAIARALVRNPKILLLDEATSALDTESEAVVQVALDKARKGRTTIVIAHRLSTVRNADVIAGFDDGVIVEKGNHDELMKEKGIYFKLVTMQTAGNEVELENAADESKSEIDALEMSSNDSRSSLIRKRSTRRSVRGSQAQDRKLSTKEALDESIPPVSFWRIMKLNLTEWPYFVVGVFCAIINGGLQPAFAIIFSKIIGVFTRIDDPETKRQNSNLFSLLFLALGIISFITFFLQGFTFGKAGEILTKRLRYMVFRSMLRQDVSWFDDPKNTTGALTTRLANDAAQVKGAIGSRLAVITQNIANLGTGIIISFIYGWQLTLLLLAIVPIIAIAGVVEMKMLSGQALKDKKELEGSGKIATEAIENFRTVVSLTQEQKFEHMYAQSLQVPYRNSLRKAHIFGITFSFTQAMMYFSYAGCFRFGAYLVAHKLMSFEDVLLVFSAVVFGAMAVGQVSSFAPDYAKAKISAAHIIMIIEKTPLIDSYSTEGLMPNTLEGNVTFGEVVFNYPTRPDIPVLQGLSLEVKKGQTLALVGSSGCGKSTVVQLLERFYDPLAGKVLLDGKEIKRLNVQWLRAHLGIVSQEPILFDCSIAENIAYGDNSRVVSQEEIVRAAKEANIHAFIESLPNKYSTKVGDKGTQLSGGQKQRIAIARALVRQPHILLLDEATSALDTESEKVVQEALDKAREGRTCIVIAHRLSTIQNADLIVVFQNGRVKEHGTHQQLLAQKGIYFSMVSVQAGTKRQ
Description for Caco-2 cells: Caco-2 cells (passage 40) were grown at 37° C. in tissue culture flasks with Dubelco's Modified Essential Medium (DMEM) supplemented with 10% v/v FBS (Fetal Bovine Serum) 1% nonessential amino acids and 100 ug/mL penicillin and streptomycin in humidified atmosphere containing 5% v/v CO2. The medium was changed every 2-3 days until cells reach 80% confluence and then were subcultured by trypsinization.
The effect of self-assembling peptides on cell viability and cell proliferation was investigated using the MTT colorimetric assay (Sigma). Caco-2 cells were cultured into the wells of 96-well plates using growth medium until a density of 4×10^3 cells/cm^2 was reached. Then we replaced the growth medium with fresh growth medium containing 0.2 or 1.0 mg/mL self-assembling peptides and the cells were incubated for 3, 24 and 48 h at 37° C. Then 10 uL of MTT reagent was added in each of the wells and the plates were incubated for 3 hat 37° C. Then 100 uL of the detergent solution was added and the plates were stored in the dark for 3 h to dissolve the formazan product. The optical density was measured at 600 nm in a Teknika® ELISA Plate spectrophotometer.

Molecule | Nile red emission maxima ([1]; PBS pH 7.4) [nm] | Vesicle diameter, AFM analysis [2] [nm] | Vesicle diameter, DLS analysis [3] | Enhancement ratio (FITC-dextran) (Caco-2 cell monolayers; 0.2 mg/ml peptide) | Enhancement ratio (FITC-dextran) (Caco-2 cell monolayers; 1.0 mg/ml peptide) | enhancement of FITC-dextran transport compared with the control (Caco-2 cell monolayers) [fold] | CMC in PBS [5] [mg/mL] | ζ-potential [6] [mV] | release kinetics of Nile red through peptide nanovesicles (in words) [1] | retention of Nile red molecules (in words) [1] | number of nanovesicles per necklace [2] | Beads diameter, AFM analysis (necklace-like formations) [2] [nm] | Clusters diameter, AFM analysis [2] [nm] | CF retention / release (in words) [4] | Caco-2 cell viability (Caco-2 cells) | Papp of FITC-dextran 4.4 kDa (Caco-2 cell monolayers; 0.2 mg/ml peptide) | Papp of FITC-dextran 4.4 kDa (Caco-2 cell monolayers; 1.0 mg/ml peptide) | other results
CCCCCCCCCCCCOS(=O)(=O)[O-].[Na+] [SDS 1%] |  |  |  |  |  |  |  |  |  |  |  |  |  |  |  |  |  | Enhancement ratio (Rhodamine-123) (P-glycoprotein): 3.0; Papp of Rhodamine-123 (P-glycoprotein; basolateral to apical): 3.28 ± 0.02 10^-5 cm/s
KAAAAAA-NH2 [KA6-CONH2] | 623 | 169 ± 29 | 164 (65-350) nm | 4.0 | 5.1 | 5.1 | 0.07 | 12.4±0.9 |  |  |  |  |  |  |  |  |  | average diameter of second DLS peak (probably aggregates of individual vesicles) [3]: 906 nm; CF retention / release (in words) ([4]; listed as KA6-CONH): did not retain CF
acetyl-AAAAAAD-COOH (Ac-AAAAAAD-OH) [Ac-A6D-COOH, amphiphilic surfactant-like self-assembling peptide forming nanovesicles] | 626 | 28 ± 9 | 97 (30-320) nm | 6.7 | 7.9 | 7.9 | 0.05 | −15.4±1.1 | release was slower | to a lesser extent | 23±3 and 23 | 200 ± 11 | 101 ± 11 | only a small CF retention efficiency | exceeding 100% | 1.82 ± 0.24 10^-5 cm/s | 2.13 ± 0.16 10^-5 cm/s | Beads diameter, AFM analysis (necklace-like formations) ([2]; listed as ac-A6D-COOH): 200±11 nm; Vesicle diameter, AFM analysis ([2]; listed as ac-A6D-COOH): 28±9 nm and ~43 nm; Clusters diameter, AFM analysis ([2]; listed as ac-A6D-COOH): 101±11 nm; Vesicle diameter, DLS analysis ([3]; listed as ac-A6D-COOH): 97 nm; initially loaded CF retained by vesicles ([4]; after 7 h, PBS pH 7.4, 20° C.): 13%
DAAAAAA-OH [DA6-COOH] | 647 | 43 ± 11 | 137 (64-725) nm | 5.0 | 6.6 | 6.6 | 0.12 | −14.0±1.1 |  |  | 11±2 and 11 | 159±26 | 135±24 | Fast CF release; also recorded: did not retain CF |  |  |  | Vesicle diameter, AFM analysis ([2]; listed as DA6-COON): 43±11 nm
acetyl-AAAAAAK-CONH2 (Ac-AAAAAAK-NH2) [Ac-A6K-CONH2, amphiphilic surfactant-like self-assembling peptide forming nanovesicles] | 631 | 126 ± 23 | 122 (30-173) nm | 4.4 | 5.7 | 5.7 | 0.16 | 8.5±0.3 | release was slower | retain higher numbers of Nile red molecules |  |  |  | significantly retained the negatively charged CF | exceeding 100% | 1.20 ± 0.36 10^-5 cm/s | 1.51 ± 0.37 10^-5 cm/s | Nile red fluorescence yield compared to other peptide nanovesicle systems ([1]; PBS pH 7.4): significantly higher; Vesicle diameter, AFM analysis ([2]; listed as ac-A6K-CONH2): ~126 nm; Vesicle diameter, DLS analysis ([3]; listed as ac-A6K-CONH2): 122 nm; CF release through peptide nanovesicles ([4]; after 7 h, PBS pH 7.4, 20° C.): approximately 50%

From patent US20150147384A1, “Sustained Delivery of Molecules Using Peptide Surfactants and Uses Thereof” (Massachusetts Institute of Technology, priority 2012, published 2015)
